Laboratory results reported in the RNAGym collection of RNA variant scans (doi:10.7554/elife.80360).

B1: HDV Ribozyme (parent)
chain: GGCCGGCAUGGUCCCAGCCUCCUCGCUGGCGCCGGCUGGGCAACAUUCCGAGGGGACCGUCCCCUCGGUAAUGGCGAAUGGGACCCA

Variants of: B1
Experiment: self-cleavage, relative activity (ratio to wild type); higher = more cleavage; co-transcriptional

Row | Variant | self-cleavage
1 | GGCCGGCAUGGUCCCAGCCUCCUCGCUGGCGCCCGCUGGGCAACAUUCCAAGGGGACCGUCCCCUCGGUAAUGGCGAAUGGGACCCA [G34C G50A] | 0.287
2 | GGCCGGCAUGGUCCCAGCCUCCUCGCUGGCGCCCGCUGGGCAACAUUCCGAGGGGACCGUCCCCUCGGUAAUGGAGAAUGGGACCCA [G34C C75A] | 0.131
3 | GGCCGGCAUGGUCCCAGCCUCCUCGCUGGCGCCCGCUGGGCAACAUUCCGAGGGGACCGUCCCCUCGGUAAUGGGGAAUGGGACCCA [G34C C75G] | 0.131
4 | GGCCGGCAUGGUCCCAGCCUCCUCGCUGGCGCCCGCUGGGCAACAUUCCGAGGGGACCGUCCCCUCGGUAAUGGUGAAUGGGACCCA [G34C C75U] | 0.0405
5 | GGCCGGCAUGGUCCCAGCCUCCUCGCUGGCGCCCGCUGGGCAACAUUCCGAGGGGACCGUCCCCUCGGUAAUAGCGAAUGGGACCCA [G34C G73A] | 0.106
6 | GGCCGGCAUGGUCCCAGCCUCCUCGCUGGCGCCCGCUGGGCAACAUUCCGAGGGGACCGUCCCCUCGGUAAUCGCGAAUGGGACCCA [G34C G73C] | 0.17
7 | GGCCGGCAUGGUCCCAGCCUCCUCGCUGGCGCCCACUGGGCAACAUUCCGAGGGGACCGUCCCCUCGGUAAUGGCGAAUGGGACCCA [G34C G35A] | 0.115
8 | GGCCGGCAUGGUCCCAGCCUCCUCGCUGGCGCCCUCUGGGCAACAUUCCGAGGGGACCGUCCCCUCGGUAAUGGCGAAUGGGACCCA [G34C G35U] | 0.306
9 | GGCCGGCAUGGUCCCAGCCUCCUCGCUGGCGCCCGCUGGGCAACAUUCCGAGGGGACCGUCCCCUCGGUAAUGGCGAAUUGGACCCA [G34C G80U] | 0.203
10 | GGCCGGCAUGGUCCCAGCCUCCUCGCUGGCGCCCGCUGGGUAACAUUCCGAGGGGACCGUCCCCUCGGUAAUGGCGAAUGGGACCCA [G34C C41U] | 0.0378
11 | GGCCGGCAUGGUCCCAGCCUCCUCGCUGGCGCCCGCUGGGAAACAUUCCGAGGGGACCGUCCCCUCGGUAAUGGCGAAUGGGACCCA [G34C C41A] | 0.233
12 | GGCCGGCAUGGUCCCAGCCUCCUCGCUGGCGCCCGCUGGGCAACAUUCCGAGGGGACCGUCCCCUCGGUAAUGGCGAAUGGGACCCG [G34C A87G] | 0.089
13 | GGCCGGCAUGGUCCCAGCCUCCUCGCUGGCGCCCGCUGGGCAACAUUCCGAGGGGACCGUCCCCUCGGUAAUGGCGAAUGGGACCCC [G34C A87C] | 0.224
14 | GGCCGGCAUGGUCCCAGCCUCCUCGCUGGCGCCCGCUGGGCAACAUUCCGAGGGGACCGUCCCCUCGGUAAUGGCGAAUGGGACCCU [G34C A87U] | 0.192
15 | GGCCGGCAUGGUCCCAGCCUCCUCGCUGGCGCCCGCUGGGCAACAUUCCGAGGAGACCGUCCCCUCGGUAAUGGCGAAUGGGACCCA [G34C G54A] | 0.166
16 | GGCCGGCAUGGUCCCAGCCUCCUCGCUGGCGCCCGCUGGGCAACAUUCCGAGGGGACCGUCCCCUCGAUAAUGGCGAAUGGGACCCA [G34C G68A] | 0.0692

Row | Variant | self-cleavage
17 | GGCCGGCAUGGUCCCAGCCUCCUCGCUGGCGCCCGCUGGGCAAGAUUCCGAGGGGACCGUCCCCUCGGUAAUGGCGAAUGGGACCCA [G34C C44G] | 0.0332
18 | GGCCGGCAUGGUCCCAGCCUCCUCGCUGGCGCCCGCUGGGCAACAUUGCGAGGGGACCGUCCCCUCGGUAAUGGCGAAUGGGACCCA [G34C C48G] | 0.162
19 | GGCCGGCAUGGUCCCAGCCUCCUCGCUGGCGCCCGCUGGGCAACAUUCCGAGGGGACCGUCCGCUCGGUAAUGGCGAAUGGGACCCA [G34C C63G] | 0.0378
20 | GGCCGGCAUGGUCCCAGCCUCCUCGCUGGCGCCCGCUGGGCAACAUUCCGAGGGGACCGUCCACUCGGUAAUGGCGAAUGGGACCCA [G34C C63A] | 0.166
21 | GGCCGGCAUGGUCCCAGCCUCCUCGCUGGCGCCCGCUGGGCAACAUUCCGAGGGGACGGUCCCCUCGGUAAUGGCGAAUGGGACCCA [G34C C58G] | 0.287
22 | GGCCGGCAUGGUCCCAGCCUCCUCGCUGGCGCCCGCUGGGCAACAUUCCGAGGGGACCGCCCCCUCGGUAAUGGCGAAUGGGACCCA [G34C U60C] | 0.244
23 | GGCCGGCAUGGUCCCAGCCUCCUCGCUGGCGCCCGCUGGGCAACAUUCCGAGGGGACCGGCCCCUCGGUAAUGGCGAAUGGGACCCA [G34C U60G] | 0.0978
24 | GGCCGGCAUGGUCCCAGCCUCCUCGCUGGCGCCCGCUGGGCAACAUUCCGAGGGGACCGUCCCCUCGGUAAUGUCGAAUGGGACCCA [G34C G74U] | 0.136
25 | GGCCGGCAUGGUCCCAGCCUCCUCGCUGGCGCCCGCUGGGCAACAUUCCGAGGGGACCGUCCCCUCGGUAAUGACGAAUGGGACCCA [G34C G74A] | 0.0354
26 | GGCCGGCAUGGUCCCAGCCUCCUCGCUGGCGCCCGCUGGGCAACAUUCCGAGGGGACCGUCCCCUCGGUAAUGCCGAAUGGGACCCA [G34C G74C] | 0.0875
27 | GGCCGGCAUGGUCCCAGCCUCCUCGCUGGCGCCCGCUGGGCAACAUUCCGAGGGGACCGUCCCCUCGGUAAUGGCGAAUGGGAACCA [G34C C84A] | 0
28 | GGCCGGCAUGGUCCCAGCCUCCUCGCUGGCGCCCGCUGGGCAACAUUCCGAGGGGACCGUCCCCUCGGUAAUGGCGAAUGGGAGCCA [G34C C84G] | 0.166
29 | GGCCGGCAUGGUCCCAGCCUCCUCGCUGGCGCCCGCUGGGCAACAUUCCGAGGGGACCGUCCCCUCGGUAAGGGCGAAUGGGACCCA [G34C U72G] | 0.222
30 | GGCCGGCAUGGUCCCAGCCUCCUCGCUGGCGCCCGCUGGGCAACAUUCCGAGGGGACCGUCCCCUCGGUAAAGGCGAAUGGGACCCA [G34C U72A] | 0.17
31 | GGCCGGCAUGGUCCCAGCCUCCUCGCUGGCGCCCGCUCGGCAACAUUCCGAGGGGACCGUCCCCUCGGUAAUGGCGAAUGGGACCCA [G34C G38C] | 0.122
32 | GGCCGGCAUGGUCCCAGCCUCCUCGCUGGCGCCCGCUAGGCAACAUUCCGAGGGGACCGUCCCCUCGGUAAUGGCGAAUGGGACCCA [G34C G38A] | 0.0959
